Assay results as given in US20130116129, “METHOD FOR DETECTING TARGET MOLECULES” (NATIONAL INSTITUTE OF ADVANCED INDUSTRIAL SCIENCE AND …, published 2013).

Tests used:
streptavidin [1] = biological target: T1, streptavidin (UniProt P22629 P22629:25-183); experiment: footprint; S1 nuclease protection; 50 mM NaCl, 20 mM MgCl2, Tris pH 7.5; ratio to control varies with streptavidin concentration; details: tags: Roche (free); Dynabeads streptavidin (Invitrogen) for bead selections; chain copies: 4
Protocol: (§1) Subsequently, 1 μl of S1 nuclease (22.5 units/μl) (Takara, Japan) was added to each tube followed by 20-minutes reaction at 37° C., and then the reaction was stopped by heating at 98° C. for 3 minutes.
(§2) PCR was performed, using a thermal circular (Biometra), after keeping the temperature at 96° C. for 1 minute, for 1 cycle of 95° C. for 15 seconds, 46° C. for 20 seconds, and 72° C. for 60 seconds, then 40 cycles each consisting of 95° C. for 15 seconds and 72° C. for 60 seconds. As a PCR reagent, KOD-Neo-plus (Toyobo Co., Ltd., Japan) was used.
(§3) After PCR, products were digested with the Msp I restriction enzyme. […] Samples after digestion were subjected to gel electrophoresis, so that the ratio of the amount of the streptavidin aptamer to the amount of the control aptamer could be determined.

streptavidin [2] = biological target: T1, streptavidin; experiment: footprint; stated non-binding control in S1 nuclease protection assay; details: tags: Roche (free); Dynabeads streptavidin (Invitrogen) for bead selections; chain copies: 4
Protocol: as §1, §2, §3

T1 sequence (P22629 25-183, one chain of several): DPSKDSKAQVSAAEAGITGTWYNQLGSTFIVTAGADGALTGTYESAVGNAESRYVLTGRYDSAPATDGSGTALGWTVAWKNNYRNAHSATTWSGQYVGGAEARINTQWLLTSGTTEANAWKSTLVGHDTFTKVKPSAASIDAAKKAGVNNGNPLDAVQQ

Binder	binding result (streptavidin [1])	binding result (streptavidin [2])
TCTGTGAGACGACGCACCGGTCGCAGGTTTTGTCTCACAG (ssDNA) [streptavidin aptamer]	binds	–
TCTGTGAGACGACGCACCGACCGCAGGTTTTGTCTCACAG (ssDNA) [control aptamer]	–	no binding
